# Source: US20230295277A1
# Legend:
# Experiment in all cases: cell-based or functional assay
# [1] = molecular target: full-length subtype B consensus gp160 expressed on HEK293 cells (vector pConBgp160-opt) (HIV-1 subtype B (consensus))
# [2] = molecular target: subtype C consensus gp160 protein expressed on HEK293 cells (vector pConCgp160-opt) (HIV-1 subtype C (consensus))
# [3] = molecular target: CD19 on REH cells (human) (UniProt P15391)
# UniProt P15391, sequence (P15391 20-556): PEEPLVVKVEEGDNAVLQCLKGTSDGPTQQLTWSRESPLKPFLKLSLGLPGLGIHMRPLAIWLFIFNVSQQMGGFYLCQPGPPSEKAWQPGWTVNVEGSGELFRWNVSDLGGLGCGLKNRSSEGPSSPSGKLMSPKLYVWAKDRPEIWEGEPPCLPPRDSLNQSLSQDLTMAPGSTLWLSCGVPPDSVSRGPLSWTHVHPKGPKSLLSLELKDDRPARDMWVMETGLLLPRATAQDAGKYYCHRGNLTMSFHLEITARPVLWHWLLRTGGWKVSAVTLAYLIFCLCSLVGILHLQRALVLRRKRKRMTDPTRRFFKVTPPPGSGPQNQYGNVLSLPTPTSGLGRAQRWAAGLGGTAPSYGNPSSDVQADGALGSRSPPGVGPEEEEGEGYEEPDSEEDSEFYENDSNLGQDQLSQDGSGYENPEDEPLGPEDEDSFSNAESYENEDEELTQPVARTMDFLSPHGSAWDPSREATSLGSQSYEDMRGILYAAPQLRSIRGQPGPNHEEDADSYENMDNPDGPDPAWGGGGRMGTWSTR
substance,measurement,setting,value
DNP-conjugated antibody 2G12,adaptor concentration at which IFN-γ production of CAR-NK cells reached a plateau,[1],> 2 nM
same,"percentage of gp160+ cells killed by anti-DNP CAR-NK cells, flow cytometry, 8 h, E:T 25:1, adaptor 2 nM",[1],50%
same,"percentage of gp160+ cells killed by anti-DNP CAR-T cells, E/T 1:1, 48 h, adaptor 10 nM",[1],34%
same,"percentage of gp160+ cells killed by universal (anti-DNP) CAR-NK cells with DNP-conjugated 2G12, E:T 25:1",[1],50%
DNP-conjugated VRC01 (antibody),"percentage of gp160+ cells killed by anti-DNP CAR-NK cells, flow cytometry, 8 h, E:T 25:1, adaptor 2 nM",[1],28.5%
same,"percentage of subtype C gp160+ cells lysed by anti-DNP CAR-NK cells, 8 h, E:T 25:1, adaptor 2 nM",[2],20%
2G12-based anti-gp160 CAR (pFUW-2G12-CD28-CD3ζ) on NK-92MI cells (from UniProt P01732 138-182; P10747 153-220; P20963 52-164),"percentage of gp160+ cells killed by 2G12 CAR-NK cells, E:T 25:1",[1],60%
DNP-conjugated 3BNC117 (antibody),"IFN-γ production by anti-DNP CAR-NK cells (ELISA), adaptor 2 nM, against the isotype control",[1],2 fold
same,"percentage of gp160+ cells killed by anti-DNP CAR-NK cells, flow cytometry, 8 h, E:T 25:1, adaptor 2 nM",[1],50%
same,percentage of gp160+ cells killed by universal CAR-NK cells,[1],45.5%
same,percentage of gp160+ cells killed by universal CAR-NK cells,[2],19.7%
same,"percentage of subtype C gp160+ cells lysed by anti-DNP CAR-NK cells, 8 h, E:T 25:1, adaptor 2 nM",[2],20%
DNP-conjugated 10-1074 (antibody),"percentage of gp160+ cells killed by anti-DNP CAR-NK cells, flow cytometry, 8 h, E:T 25:1, adaptor 2 nM",[1],50%
same,"percentage of gp160+ cells killed by anti-DNP CAR-T cells, E/T 1:1, 48 h, adaptor 10 nM",[1],29%
same,percentage of gp160+ cells killed by universal CAR-NK cells,[1],53.1%
same,percentage of gp160+ cells killed by universal CAR-NK cells,[2],29.8%
same,"percentage of subtype C gp160+ cells killed by anti-DNP CAR-NK cells, 8 h, E:T 25:1, adaptor 2 nM",[2],30%
DNP-conjugated PG9 (antibody),"percentage of gp160+ cells killed by anti-DNP CAR-NK cells, flow cytometry, 8 h, E:T 25:1, adaptor 2 nM",[1],50%
same,"percentage of subtype C gp160+ cells killed by anti-DNP CAR-NK cells, 8 h, E:T 25:1, adaptor 2 nM",[2],30%
DNP-conjugated anti-CD19 antibody (clone FMC63),"percentage of REH cells killed by anti-DNP CAR-NK cells, flow cytometry, E:T 25:1, overnight, adaptor 50 nM",[3],59%
same,"percentage of REH cells remaining alive, flow cytometry, E:T 25:1, overnight, adaptor 50 nM",[3],41%
